From article doi:10.1101/2024.03.25.586624

Assays:
[1] = biological target: synthetic sfGFP peptide, peptide variant 14; assay: AlphaScreen or HTRF
[2] = biological target: synthetic sfGFP peptide, peptide variant 9; assay: AlphaScreen or HTRF

- fold of the AlphaLISA signal of the wild-type TbtA leader sequence [1]: 2 fold
- AlphaLISA signal, percent of the wild-type TbtA leader sequence [2]: 25%
Substance: MBP-TbtF RRE domain (domain or fragment)
